Measurements as given in publication PMC11250841.

Key:
[1] = target: T1, Thymic stromal lymphopoietin receptor (TSLPR) (human (endogenous in primary keratinocytes)) (UniProt Q9HC73)
T1 sequence: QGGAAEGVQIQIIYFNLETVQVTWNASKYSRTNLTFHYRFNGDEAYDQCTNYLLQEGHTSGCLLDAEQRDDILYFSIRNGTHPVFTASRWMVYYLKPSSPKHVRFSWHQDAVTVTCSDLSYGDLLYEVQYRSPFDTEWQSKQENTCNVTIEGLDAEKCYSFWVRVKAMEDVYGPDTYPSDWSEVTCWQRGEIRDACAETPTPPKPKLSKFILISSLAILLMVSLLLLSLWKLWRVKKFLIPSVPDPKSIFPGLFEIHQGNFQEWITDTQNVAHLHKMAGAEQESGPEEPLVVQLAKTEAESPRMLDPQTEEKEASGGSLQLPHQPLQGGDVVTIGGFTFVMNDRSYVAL

[2] = target: T1, Thymic stromal lymphopoietin receptor (TSLPR) (human (endogenous in primary keratinocytes)); remark: listed apart in the source

inhibition by the small molecule BP79 of TSLP-induced IL-4/IL-13 expression in primary human CD4+ T cells (ELISA, 36 h), dose-response, at 10 µM and 20 µM [1]: > 80%
inhibition by the small molecule BP79 of TSLP-induced IL-4 release from HuT78 cells (ELISA, 36 h), concentration series up to 20 µM [2]: 60%
inhibition by the small molecule BP79 of TSLP-induced IL-13 release from HuT78 cells (ELISA, 36 h), concentration series up to 20 µM [2]: 80%
Substance: Thymic stromal lymphopoietin (TSLP), human recombinant (from UniProt Q969D9 29-159) (ligand)
